Source: paper PMC12032302 (2025)

Target: HA-NEK7 (mouse NIMA-related kinase 7, wild type) (mouse, UniProt Q9ES74 1-302)
Experiment: BLI

Sequence of HA-NEK7 (mouse NIMA-related kinase 7, wild type) (Q9ES74 whole entry): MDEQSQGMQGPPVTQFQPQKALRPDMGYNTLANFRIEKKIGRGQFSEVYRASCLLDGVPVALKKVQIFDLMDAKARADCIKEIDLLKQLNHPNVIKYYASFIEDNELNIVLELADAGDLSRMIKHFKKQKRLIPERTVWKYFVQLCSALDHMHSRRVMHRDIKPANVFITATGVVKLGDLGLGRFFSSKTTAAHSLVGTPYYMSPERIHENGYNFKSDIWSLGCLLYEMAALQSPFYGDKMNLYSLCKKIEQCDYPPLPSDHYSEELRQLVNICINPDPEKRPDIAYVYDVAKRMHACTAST

Binder: KLVALKTNGDGNCLMHAACQYMWGVQDTD [A20-derived peptide P-II]
- Kd: 197 µM
